To fix the notation:
B2: His-HSF1 (purified) (natural protein, human, UniProt Q00613 1-529, looked up)
chain: MDLPVGPGAAGPSNVPAFLTKLWTLVSDPDTDALICWSPSGNSFHVFDQGQFAKEVLPKYFKHNNMASFVRQLNMYGFRKVVHIEQGGLVKPERDDTEFQHPCFLRGQEQLLENIKRKVTSVSTLKSEDIKIRQDSVTKLLTDVQLMKGKQECMDSKLLAMKHENEALWREVASLRQKHAQQQKVVNKLIQFLISLVQSNRILGVKRKIPLMLNDSGSAHSMPKYSRQFSLEHVHGSGPYSAPSPAYSSSSLYAPDAVASSGPIISDITELAPASPMASPGGSIDERPLSSSPLVRVKEEPPSPPQSPRVEEASPGRPSSVDTLLSPTALIDSILRESEPAPASVTALTDARGHTDTEGRPPSPPPTSTPEKCLSVACLDKNELSDHLDAMDSNLDNLQTMLSSHGFSVDTSALLDLFSPSVTVPDMSLPDLDSSLASIQELLSPQEPPRPPEAENSSPDSGKQLVHYTAQPLFLLDPGSVDTGSNDLPVLFELGEGSYFSEGDGFAEDPTISLLTGSEPPKAKDPTVS
B3: FLAG-eEF1BδL (purified) (natural protein)
chain: MRSGKASCTLETVWEDKHKYEEAERRFYEHEATQAAASAQQLPAEGPAMNGPGQDDPEDADEAEAPDGGSRRDPRKSQDSRKPLQKKRKRSPKSGLGPADLALLGLSAERVWLDKSLFDQAESSYRQKLADVAAQAAWPPALAPWGLCTHGNQVACHHVTWGIWVNKSSFDQAERAFVEWSQALLLAPDGSRRQGTPNTGQQVAVPDLAHQPSPPVNGQPPLGSLQALVREVWLEKPRYDAAERGFYEALFDGHPPGKVRLQERAGLAEGARRGRRDRRGRNILGNKRAGLRRADGEAPSALPYCYFLQKDAEAPWLSKPAYDSAECRHHAAEALRVAWCLEAASLSHRPGPRSGLSVSSLRPNRKMATNFLAHEKIWFDKFKYDDAERRFYEQMNGPVAGASRQENGASVILRDIARARENIQKSLAGSSGPGASSGTSGDHGELVVRIASLEVENQSLRGVVQELQQAISKLEARLNVLEKSSPGHRATAPQTQHVSPMRQVEPPAKKPATPAEDDEDDDIDLFGSDNEEEDKEAAQLREERLRQYAEKKAKKPALVAKSSILLDVKPWDDETDMAQLEACVRSIQLDGLVWGASKLVPVGYGIRKLQIQCVVEDDKVGTDLLEEEITKFEEHVQSVDIAAFNKI

Holding throughout (experiment): pull-down
The assay “His-HSF1 (purified)” concerns the target B2.
The assay “FLAG-eEF1BδL (purified)” concerns the target B3.
A further assay deals with GST-RNF20/FLAG-RNF40 (human, UniProt Q5VTR2 1-975; O75150 1-1001).
Sequence of GST-RNF20/FLAG-RNF40 (Q5VTR2 whole entry, chain 1 of 2): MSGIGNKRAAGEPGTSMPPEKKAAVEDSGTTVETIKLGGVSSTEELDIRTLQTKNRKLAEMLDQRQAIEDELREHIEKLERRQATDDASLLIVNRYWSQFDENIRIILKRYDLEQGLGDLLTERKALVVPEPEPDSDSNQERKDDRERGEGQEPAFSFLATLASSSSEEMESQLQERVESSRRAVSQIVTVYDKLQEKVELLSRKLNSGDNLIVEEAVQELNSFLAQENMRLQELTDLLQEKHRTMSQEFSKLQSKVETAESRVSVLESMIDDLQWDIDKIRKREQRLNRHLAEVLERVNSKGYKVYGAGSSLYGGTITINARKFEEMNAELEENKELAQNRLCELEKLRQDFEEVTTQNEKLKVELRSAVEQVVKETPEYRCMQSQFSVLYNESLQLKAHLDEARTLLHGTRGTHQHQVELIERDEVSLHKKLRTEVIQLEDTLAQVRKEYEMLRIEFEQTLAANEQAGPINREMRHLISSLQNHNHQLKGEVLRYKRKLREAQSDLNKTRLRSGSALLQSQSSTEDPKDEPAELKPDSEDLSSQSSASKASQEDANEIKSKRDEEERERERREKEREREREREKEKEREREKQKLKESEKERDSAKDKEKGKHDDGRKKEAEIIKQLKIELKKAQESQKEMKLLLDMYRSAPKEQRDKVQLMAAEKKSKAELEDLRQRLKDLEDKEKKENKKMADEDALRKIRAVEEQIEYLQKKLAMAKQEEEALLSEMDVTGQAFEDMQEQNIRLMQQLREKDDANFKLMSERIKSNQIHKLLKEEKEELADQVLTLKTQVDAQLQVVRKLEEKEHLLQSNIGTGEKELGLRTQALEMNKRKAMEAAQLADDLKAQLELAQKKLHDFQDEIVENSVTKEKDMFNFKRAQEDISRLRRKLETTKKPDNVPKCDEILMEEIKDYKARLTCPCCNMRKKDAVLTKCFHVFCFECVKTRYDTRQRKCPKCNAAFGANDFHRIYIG
Sequence of GST-RNF20/FLAG-RNF40 (O75150 whole entry, chain 2 of 2): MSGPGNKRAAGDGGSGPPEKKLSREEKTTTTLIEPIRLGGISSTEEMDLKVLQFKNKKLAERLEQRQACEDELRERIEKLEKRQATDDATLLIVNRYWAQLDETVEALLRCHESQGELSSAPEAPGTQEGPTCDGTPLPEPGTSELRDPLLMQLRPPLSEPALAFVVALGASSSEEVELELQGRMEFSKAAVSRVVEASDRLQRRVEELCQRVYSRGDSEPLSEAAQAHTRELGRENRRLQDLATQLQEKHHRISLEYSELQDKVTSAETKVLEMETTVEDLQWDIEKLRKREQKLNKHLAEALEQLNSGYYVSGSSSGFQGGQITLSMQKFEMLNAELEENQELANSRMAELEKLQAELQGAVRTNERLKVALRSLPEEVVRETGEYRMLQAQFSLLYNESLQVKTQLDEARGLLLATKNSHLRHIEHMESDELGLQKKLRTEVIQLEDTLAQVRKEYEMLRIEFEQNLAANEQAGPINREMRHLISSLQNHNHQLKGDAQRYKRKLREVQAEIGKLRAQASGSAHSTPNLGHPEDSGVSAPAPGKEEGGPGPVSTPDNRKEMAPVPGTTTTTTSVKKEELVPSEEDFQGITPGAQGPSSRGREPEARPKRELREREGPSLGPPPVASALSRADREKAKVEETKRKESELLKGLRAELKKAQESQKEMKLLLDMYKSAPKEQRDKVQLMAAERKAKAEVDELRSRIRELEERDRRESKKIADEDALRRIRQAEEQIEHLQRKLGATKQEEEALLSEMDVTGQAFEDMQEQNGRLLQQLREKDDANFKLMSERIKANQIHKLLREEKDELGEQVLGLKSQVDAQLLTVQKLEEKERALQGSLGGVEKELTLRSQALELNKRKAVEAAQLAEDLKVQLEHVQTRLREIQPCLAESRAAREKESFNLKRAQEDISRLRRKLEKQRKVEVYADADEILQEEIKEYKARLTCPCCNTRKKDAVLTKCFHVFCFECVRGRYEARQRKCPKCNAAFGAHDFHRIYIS

B1: GST-eEF1BδL fragment of residues 181–367 (domain or fragment, human, UniProt P29692-2 181-367, looked up)
chain: SQALLLAPDGSRRQGTPNTGQQVAVPDLAHQPSPPVNGQPPLGSLQALVREVWLEKPRYDAAERGFYEALFDGHPPGKVRLQERAGLAEGARRGRRDRRGRNILGNKRAGLRRADGEAPSALPYCYFLQKDAEAPWLSKPAYDSAECRHHAAEALRVAWCLEAASLSHRPGPRSGLSVSSLRPNRKM
For the molecule B1, the binding result in the assay with His-HSF1 (purified) is reported as “binds”. With B2, the binding result in the assay with FLAG-eEF1BδL (purified) is recorded as “binds”. With B3, the binding result with GST-RNF20/FLAG-RNF40 is on record as “binds”.
